In patent US20160145657A1, “Methods and Materials for Producing 7-Carbon Chemicals via a C9 Route” (INVISTA North America S.á.r.l., priority 2014, published 2016):

B1: SEQ ID NO 9: Pseudomonas syringae ω-transaminase, Genbank Accession No. AAY39893.1 (protein)
chain: MSANNPQTLEWQALSSEHHLAPFSDYKQLKEKGPRIITRAEGVYLWDSEGNKILDGMSGLWCVAIGYGREELADAASKQMRELPYYNLFFQTAHPPVLELAKAISDIAPEGMNHVFFTGSGSEGNDTMLRMVRHYWALKGQPNKKTIISRVNGYHGSTVAGASLGGMTYMHEQGDLPIPGVVHIPQPYWFGEGGDMTPDEFGIWAAEQLEKKILELGVENVGAFIAEPIQGAGGVIVPPDSYWPKIKEILSRYDILFAADEVICGFGRTSEWFGSDFYGLRPDMMTIAKGLTSGYVPMGGLIVRDEIVAVLNEGGDFNHGFTYSGHPVAAAVALENIRILREEKIVERVRSETAPYLQKRLRELSDHPLVGEVRGVGLLGAIELVKDKTTRERYTDKGAGMICRTFCFDNGLIMRAVGDTMIIAPPLVISFAQIDELVEKARTCLDLTLAVLQG
B2: SEQ ID NO 3: Mycobacterium smegmatis carboxylate reductase, Genbank Accession No. ABK71854.1 (protein)
chain: MTSDVHDATDGVTETALDDEQSTRRIAELYATDPEFAAAAPLPAVVDAAHKPGLRLAEILQTLFTGYGDRPALGYRARELATDEGGRTVTRLLPRFDTLTYAQVWSRVQAVAAALRHNFAQPIYPGDAVATIGFASPDYLTLDLVCAYLGLVSVPLQHNAPVSRLAPILAEVEPRILTVSAEYLDLAVESVRDVNSVSQLVVFDHHPEVDDHRDALARAREQLAGKGIAVTTLDAIADEGAGLPAEPIYTADHDQRLAMILYTSGSTGAPKGAMYTEAMVARLWTMSFITGDPTPVINVNFMPLNHLGGRIPISTAVQNGGTSYFVPESDMSTLFEDLALVRPTELGLVPRVADMLYQHHLATVDRLVTQGADELTAEKQAGAELREQVLGGRVITGFVSTAPLAAEMRAFLDITLGAHIVDGYGLTETGAVTRDGVIVRPPVIDYKLIDVPELGYFSTDKPYPRGELLVRSQTLTPGYYKRPEVTASVFDRDGYYHTGDVMAETAPDHLVYVDRRNNVLKLAQGEFVAVANLEAVFSGAALVRQIFVYGNSERSFLLAVVVPTPEALEQYDPAALKAALADSLQRTARDAELQSYEVPADFIVETEPFSAANGLLSGVGKLLRPNLKDRYGQRLEQMYADIAATQANQLRELRRAAATQPVIDTLTQAAATILGTGSEVASDAHFTDLGGDSLSALTLSNLLSDFFGFEVPVGTIVNPATNLAQLAQHIEAQRTAGDRRPSFTTVHGADATEIRASELTLDKFIDAETLRAAPGLPKVTTEPRTVLLSGANGWLGRFLTLQWLERLAPVGGTLITIVRGRDDAAARARLTQAYDTDPELSRRFAELADRHLRVVAGDIGDPNLGLTPEIWHRLAAEVDLVVHPAALVNHVLPYRQLFGPNVVGTAEVIKLALTERIKPVTYLSTVSVAMGIPDFEEDGDIRTVSPVRPLDGGYANGYGNSKWAGEVLLREAHDLCGLPVATFRSDMILAHPRYRGQVNVPDMFTRLLLSLLITGVAPRSFYIGDGERPRAHYPGLTVDFVAEAVTTLGAQQREGYVSYDVMNPHDDGISLDVFVDWLIRAGHPIDRVDDYDDWVRRFETALTALPEKRRAQTVLPLLHAFRAPQAPLRGAPEPTEVFHAAVRTAKVGPGDIPHLDEALIDKYIRDLREFGLI
B3: SEQ ID NO 12: Vibrio fluvialis ω-transaminase, Genbank Accession No. AEA39183.1 (protein)
chain: MNKPQSWEARAETYSLYGFTDMPSLHQRGTVVVTHGEGPYIVDVNGRRYLDANSGLWNMVAGFDHKGLIDAAKAQYERFPGYHAFFGRMSDQTVMLSEKLVEVSPFDSGRVFYTNSGSEANDTMVKMLWFLHAAEGKPQKRKILTRWNAYHGVTAVSASMTGKPYNSVFGLPLPGFVHLTCPHYWRYGEEGETEEQFVARLARELEETIQREGADTIAGFFAEPVMGAGGVIPPAKGYFQAILPILRKYDIPVISDEVICGFGRTGNTWGCVTYDFTPDAIISSKNLTAGFFPMGAVILGPELSKRLETAIEAIEEFPHGFTASGHPVGCAIALKAIDVVMNEGLAENVRRLAPRFEERLKHIAERPNIGEYRGIGFMWALEAVKDKASKTPFDGNLSVSERIANTCTDLGLICRPLGQSVVLCPPFILTEAQMDEMFDKLEKALDKVFAEVA

Key:
Format in all cases: biochemical
[1] = ω-transaminase activity, forward direction (pimelate semialdehyde to 7-aminoheptanoate), pyruvate formation by RP-HPLC; settings: for acceptance of pimelate semialdehyde as substrate (conversion of L-alanine to pyruvate) against the empty vector control: cell free extract, 10 mM pimelate semialdehyde, 10 mM L-alanine, pH 7.5, 25° C., 4 h, FIG. 14; for reversibility of ω-transaminase activity: pimelate semialdehyde accepted, 7-aminoheptanoate synthesized: conclusion from reverse and forward assays of Example 1
Method: (§1) A nucleotide sequence encoding an N-terminal His-tag was added to the nucleic acid sequences from Chromobacterium violaceum, Pseudomonas syringae, Rhodobacter sphaeroides, and Vibrio fluvialis encoding the ω-transaminases of SEQ ID NOs: 7, 9, 10 and 12, respectively (see FIG. 6) such that N-terminal HIS tagged ω-transaminases could be produced. Each of the resulting modified genes was cloned into a pET21a expression vector under control of the T7 promoter and each expression vector was transformed into a BL21[DE3] E. coli host. The resulting recombinant E. coli strains were cultivated at 37° C. in a 250 mL shake flask culture containing 50 mL LB media and antibiotic selection pressure, with shaking at 230 rpm. Each culture was induced overnight at 16° C. using 1 mM IPTG.
(§2) The pellet from each induced shake flask culture was harvested via centrifugation. Each pellet was resuspended and lysed via sonication. The cell debris was separated from the supernatant via centrifugation and the cell free extract was used immediately in enzyme activity assays.
Enzyme activity in the forward direction (i.e., pimelate semialdehyde to 7-aminoheptanoate) was confirmed for the transaminases of SEQ ID NO 9, SEQ ID NO 10 and SEQ ID NO 12. Enzyme activity assays were performed in a buffer composed of a final concentration of 50 mM HEPES buffer (pH=7.5), 10 mM pimelate semialdehyde, 10 mM L-alanine and 100 μM pyridoxyl 5′ phosphate. Each enzyme activity assay reaction was initiated by adding a cell free extract of the ω-transaminase gene product or the empty vector control to the assay buffer containing the pimelate semialdehyde and incubated at 25° C. for 4 h, with shaking at 250 rpm. The formation of pyruvate was quantified via RP-HPLC.

[2] = ω-transaminase activity, 7-aminoheptanol to 7-oxoheptanol, L-alanine formation by RP-HPLC; settings: for acceptance of 7-aminoheptanol as substrate (conversion of pyruvate to L-alanine) against the empty vector control: cell free extract, 10 mM 7-aminoheptanol, 10 mM pyruvate, pH 7.5, 25° C., 4 h, FIG. 17; for acceptance of 7-oxoheptanol as substrate forming 7-aminoheptanol, concluded from reversibility: inferred from reverse direction assay and Example 1
Method: A nucleotide sequence encoding an N-terminal His-tag was added to the Chromobacterium violaceum, Pseudomonas syringae and Rhodobacter sphaeroides nucleic acids encoding the ω-transaminases of SEQ ID NOs: 7, 9 and 10, respectively (see FIG. 6) such that N-terminal HIS tagged ω-transaminases could be produced. The modified genes were cloned into a pET21a expression vector under the T7 promoter. Each expression vector was transformed into a BL21[DE3] E. coli host. Each resulting recombinant E. coli strain were cultivated at 37° C. in a 250 mL shake flask culture containing 50 mL LB media and antibiotic selection pressure, with shaking at 230 rpm. Each culture was induced overnight at 16° C. using 1 mM IPTG.
as §2
Enzyme activity assays in the reverse direction (i.e., 7-aminoheptanol to 7-oxoheptanol) were performed in a buffer composed of a final concentration of 50 mM HEPES buffer (pH=7.5), 10 mM 7-aminoheptanol, 10 mM pyruvate, and 100 μM pyridoxyl 5′ phosphate. Each enzyme activity assay reaction was initiated by adding cell free extract of the ω-transaminase gene product or the empty vector control to the assay buffer containing the 7-aminoheptanol and then incubated at 25° C. for 4 h, with shaking at 250 rpm. The formation of L-alanine was quantified via RP-HPLC.

[3] = ω-transaminase activity, reverse direction (7-aminoheptanoate to pimelate semialdehyde), L-alanine formation by RP-HPLC; settings: cell free extract, 10 mM 7-aminoheptanoate, 10 mM pyruvate, pH 7.5, 25° C., 4 h; FIG. 13
Method: as §1, §2
Enzyme activity assays in the reverse direction (i.e., 7-aminoheptanoate to pimelate semialdehyde) were performed in a buffer composed of a final concentration of 50 mM HEPES buffer (pH=7.5), 10 mM 7-aminoheptanoate, 10 mM pyruvate and 100 μM pyridoxyl 5′ phosphate. Each enzyme activity assay reaction was initiated by adding cell free extract of the ω-transaminase gene product or the empty vector control to the assay buffer containing the 7-aminoheptanoate and incubated at 25° C. for 4 h, with shaking at 250 rpm. The formation of L-alanine from pyruvate was quantified via RP-HPLC.

[4] = carboxylate reductase activity, N7-acetyl-7-aminoheptanoate to N7-acetyl-7-aminoheptanal, NADPH consumption at 340 nm; settings: purified enzyme enhanced by sfp gene product, 2 mM N7-acetyl-7-aminoheptanoate, pH 7.5, room temperature, 20 min; FIG. 10
Method: The activity of each of the N-terminal His-tagged carboxylate reductases of SEQ ID NOs: 3, 5, and 6 (see Examples 2 and 3, and FIG. 6) for converting N7-acetyl-7-aminoheptanoate to N7-acetyl-7-aminoheptanal was assayed in triplicate in a buffer composed of a final concentration of 50 mM HEPES buffer (pH=7.5), 2 mM N7-acetyl-7-aminoheptanoate, 10 mM MgCl2, 1 mM ATP, and 1 mM NADPH. The assays were initiated by adding purified carboxylate reductase and phosphopantetheine transferase or the empty vector control to the assay buffer containing the N7-acetyl-7-aminoheptanoate then incubated at room temperature for 20 min. The consumption of NADPH was monitored by absorbance at 340 nm.

Molecule	acceptance of pimelate semialdehyde as substrate (conversion of L-alanine to pyruvate) against the empty vector control [1]	reversibility of ω-transaminase activity: pimelate semialdehyde accepted, 7-aminoheptanoate synthesized [1]	acceptance of 7-aminoheptanol as substrate (conversion of pyruvate to L-alanine) against the empty vector control [2]	acceptance of 7-oxoheptanol as substrate forming 7-aminoheptanol, concluded from reversibility [2]	acceptance of 7-aminoheptanoate as substrate (conversion of pyruvate to L-alanine) against the empty vector control [3]	acceptance of N7-acetyl-7-aminoheptanoate as substrate (NADPH consumption) against the empty vector control [4]
SEQ ID NO 10: Rhodobacter sphaeroides ω-transaminase, Genbank Accession No. ABA81135.1	accepted pimelate semialdehyde as substrate	accepted pimelate semialdehyde as substrate and synthesized 7-aminoheptanoate as a reaction product	accepted 7-aminoheptanol as substrate	accept 7-oxoheptanol as substrate and form 7-aminoheptanol	accepted 7-aminoheptanote as substrate	–
B1	accepted pimelate semialdehyde as substrate	accepted pimelate semialdehyde as substrate and synthesized 7-aminoheptanoate as a reaction product	accepted 7-aminoheptanol as substrate	accept 7-oxoheptanol as substrate and form 7-aminoheptanol	accepted 7-aminoheptanote as substrate	–
B2	–	–	–	–	–	accepted N7-acetyl-7-aminoheptanoate as substrate
B3	accepted pimelate semialdehyde as substrate	accepted pimelate semialdehyde as substrate and synthesized 7-aminoheptanoate as a reaction product	–	–	accepted 7-aminoheptanote as substrate	–
